Test results taken from patent publication US20240261333A1, “NOVEL TARGETS FOR ENHANCING ANTI-TUMOR IMMUNITY” (THE BROAD INSTITUTE, INC., priority 2021, published 2024).

T1: B3GNT2 (Homo sapiens, UniProt Q9NY97)
T1 construct: The respective ORFs of candidate genes [CD274 (NM_014143), MCL1 (NM_021960), JUNB (NM_002229), and B3GNT2 (NM_006577)] were synthesized; expressed in transfected cells; host or cells: A375 melanoma cells (lentiviral ORF overexpression)
T1 sequence (Q9NY97 1-397): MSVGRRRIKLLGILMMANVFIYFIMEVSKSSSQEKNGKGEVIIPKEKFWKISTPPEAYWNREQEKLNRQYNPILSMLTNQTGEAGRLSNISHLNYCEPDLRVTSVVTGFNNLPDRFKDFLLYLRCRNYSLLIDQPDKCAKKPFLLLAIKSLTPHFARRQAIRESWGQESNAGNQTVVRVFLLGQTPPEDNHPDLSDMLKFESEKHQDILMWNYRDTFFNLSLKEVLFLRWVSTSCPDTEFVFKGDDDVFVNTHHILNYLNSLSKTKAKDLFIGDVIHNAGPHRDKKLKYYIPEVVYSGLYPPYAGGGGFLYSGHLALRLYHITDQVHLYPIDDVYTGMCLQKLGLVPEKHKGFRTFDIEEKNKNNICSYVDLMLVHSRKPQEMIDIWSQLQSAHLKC


Biological target: T1, B3GNT2
Assay: Co-IP of FLAG-tagged B3GNT2 followed by mass spectrometry
Format: cell-based
Parameters: C-term IgG / C-term flag: unit not given here
Details: Co-IP followed by mass spectrometry of B3GNT2; for C-term flag / C-term IgG: C-term tag; for C-term flag / N-term FLAG: FLAG pull-down; for C-term IgG / N-term IgG: IgG pull-down; for N-term FLAG / N-term IgG: N-term tag
Method: Cells were plated in 10-cm cell culture dishes and grown to 60-80% confluency. For each condition, two biological replicates were harvested for co-IP. Cells were washed with PBS and 4 mL of lysis buffer (20 mM HEPES, 1% Triton X-100, 150 mM NaCl, 1 mM EDTA, and 10% glycerol) containing protease inhibitor cocktail was added. Cells were scraped and lysate was incubated at 4° C. under rotary agitation for 1 h. Lysate was centrifuged at 14,000×g for 10 min at 4° C. Supernatant was transferred to a new tube and an aliquot was taken as the input. […] For Western blots, 10 μg/mL Chicken Anti-FLAG (Aves labs ET-DY100) and IgY control (R&D Systems AB-101-C) antibodies were biotinylated (Thermo Fisher Scientific 90407) and added to the respective conditions. Lysates with antibodies were incubated at 4° C. under rotary agitation overnight. For each mL of lysate, 50 μL of Pierce Protein A/G Magnetic Beads (Mass spectrometry; Thermo Fisher Scientific 88803) or Pierce Streptavidin Magnetic Beads (Western blot; Thermo Fisher Scientific 88817) was washed twice with lysis buffer. Lysates with antibodies were added to the beads and incubated at 4° C. under rotary agitation for 4 h. Beads were washed with lysis buffer 3 times and resuspended in lysis buffer for storage. […] This solution was subjected to solid phase extraction to concentrate the peptides and remove unwanted reagents followed by injection onto a Shimadzu HPLC with fraction collector. Eight fractions were collected and after concentration were injected on a Waters NanoAcquity HPLC equipped with a self-packed Aeris 3 μm C18 analytical column 0.075 mm by 20 cm, (Phenomenex). Peptides were eluted using standard reverse-phase gradients. The effluent from the column was analyzed using a Thermo Orbitrap Elite mass spectrometer (nanospray configuration) operated in a data dependent manner for 54 minutes. […] Scaffold Q+S (Proteome Software) was used to provide consensus reports for the identified proteins.

Row | Molecule | C-term flag | C-term IgG | N-term FLAG | N-term IgG
1 | DDX20 (protein) MAAAFEASGALAAVATAMPAEHVAVQVPAPEPTPGPVRILRTAQDLSSPRTRTGDVLLAEPADFESLLLSRPVLEGLRAAGFERPSPVQLKAIPLGRCGLDLIVQAKSGTGKTCVFSTIALDSLVLENLSTQILILAPTREIAVQIHSVITAIGIKMEGLECHVFIGGTPLSQDKTRLKKCHIAVGSPGRIKQLIELDYLNPGSIRLFILDEADKLLEEGSFQEQINWIYSSLPASKQMLAVSATYPEFLANALTKYMRDPTFVRLNSSDPSLIGLKQYYKVVNSYPLAHKVFEEKTQHLQELFSRIPFNQALVFSNLHSRAQHLADILSSKGFPAECISGNMNQNQRLDAMAKLKHFHCRVLISTDLTSRGIDAEKVNLVVNLDVPLDWETYMHRIGRAGRFGTLGLTVTYCCRGEEENMMMRIAQKCNINLLPLPDPIPSGLMEECVDWDVEVKAAVHTYGIASVPNQPLKKQIQKIERTLQIQKAHGDHMASSRNNSVSGLSVKSKNNTKQKLPVKSHSECGIIEKATSPKELGCDRQSEEQMKNSVQTPVENSTNSQHQVKEALPVSLPQIPCLSSFKIHQPYTLTFAELVEDYEHYIKEGLEKPVEIIRHYTGPGDQTVNPQNGFVRNKVIEQRVPVLASSSQSGDSESDSDSYSSRTSSQSKGNKSYLEGSSDNQLKDSESTPVDDRISLEQPPNGSDTPNPEKYQESPGIQMKTRLKEGASQRAKQSRRNLPRRSSFRLQTEAQEDDWYDCHREIRLSFSDTYQDYEEYWRAYYRAWQEYYAAASHSYYWNAQRHPSWMAAYHMNTIYLQEMMHSNQ | 6 | 0 | 0 | 0
2 | TMEM59 (protein) EAFDSVLGDTASCHRACQLTYPLHTYPKEEELYACQRGCRLFSICQFVDDGIDLNRTKLECESACTEAYSQSDEQYACHLGCQNQLPFAELRQEQLMSLMPKMHLLFPLTLVRSFWSDMMDSAQSFITSSWTFYLQADDGKIVIFQSKPEIQYAPHLEQEPTNLRESSLSKMSYLQMRNSQAHRNFLEDGESDGFLRCLSLNSGWILTTTLVLSVMVLLWICCATVATAVEQYVPSEKLSIYGDLEFMNEQKLNRYPASSLVVVRSKTEDHEEAGPLPTKVNLAHSEI | 0 | 0 | 6 | 0
3 | NCCRP1 (protein) MEEVREGHALGGGMEADGPASLQELPPSPRSPSPPPSPPPLPSPPSLPSPAAPEAPELPEPAQPSEAHARQLLLEEWGPLSGGLELPQRLTWKLLLLRRPLYRNLLRSPNPEGINIYEPAPPTGPTQRPLETLGNFRGWYIRTEKLQQNQSWTVKQQCVDLLAEGLWEELLDDEQPAITVMDWFEDSRLDACVYELHVWLLAADRRTVIAQHHVAPRTSGRGPPGRWVQVSHVFRHYGPGVRFIHFLHKAKNRMEPGGLRRTRVTDSSVSVQLRE | 4 | 0 | 4 | 4
4 | MTCH2 (protein, UniProt Q9Y6C9 2-303, looked up) Mitochondrial carrier homolog …: ADAASQVLLGSGLTILSQPLMYVKVLIQVGYEPLPPTIGRNIFGRQVCQLPGLFSYAQHIASIDGRRGLFTGLTPRLCSGVLGTVVHGKVLQHYQESDKGEELGPGNVQKEVSSSFDHVIKETTREMIARSAATLITHPFHVITLRSMVQFIGRESKYCGLCDSIITIYREEGILGFFAGLVPRLLGDILSLWLCNSLAYLVNTYALDSGVSTMNEMKSYSQAVTGFFASMLTYPFVLVSNLMAVNNCGLAGGCPPYSPIYTSWIDCWCMLQKEGNMSRGNSLFFRKVPFGKTYCCDLKMLI | 2 | 0 | 4 | 0
5 | ARG1 (protein) MSAKSRTIGIIGAPFSKGQPRGGVEEGPTVLRKAGLLEKLKEQECDVKDYGDLPFADIPNDSPFQIVKNPRSVGKASEQLAGKVAEVKKNGRISLVLGGDHSLAIGSISGHARVHPDLGVIWVDAHTDINTPLTTTSGNLHGQPVSFLLKELKGKIPDVPGFSWVTPCISAKDIVYIGLRDVDPGEHYILKTLGIKYFSMTEVDRLGIGKVMEETLSYLLGRKKRPIHLSFDVDGLDPSFTPATGTPVVGGLTYREGLYITEEIYKTGLLSGLDIMEVNPSLGKTPEEVTRTVNTAVAITLACFGLAREGNHKPIDYLNPPK | 6 | 4 | 8 | 4
6 | MTDH (protein, UniProt Q86UE4 1-582, looked up) Protein LYRIC: MAARSWQDELAQQAEEGSARLREMLSVGLGFLRTELGLDLGLEPKRYPGWVILVGTGALGLLLLFLLGYGWAAACAGARKKRRSPPRKREEAAAVPAAAPDDLALLKNLRSEEQKKKNRKKLSEKPKPNGRTVEVAEGEAVRTPQSVTAKQPPEIDKKNEKSKKNKKKSKSDAKAVQNSSRHDGKEVDEGAWETKISHREKRQQRKRDKVLTDSGSLDSTIPGIENTITVTTEQLTTASFPVGSKKNKGDSHLNVQVSNFKSGKGDSTLQVSSGLNENLTVNGGGWNEKSVKLSSQISAGEEKWNSVSPASAGKRKTEPSAWSQDTGDANTNGKDWGRSWSDRSIFSGIGSTAEPVSQSTTSDYQWDVSRNQPYIDDEWSGLNGLSSADPNSDWNAPAEEWGNWVDEERASLLKSQEPIPDDQKVSDDDKEKGEGALPTGKSKKKKKKKKKQGEDNSTAQDTEELEKEIREDLPVNTSKTRPKQEKAFSLKTISTSDPAEVLVKNSQPIKTLPPATSTEPSVILSKSDSDKSSSQVPPILQETDKSKSNTKQNSVPPSQTKSETSWESPKQIKKKKKARRET | 6 | 0 | 0 | 0
7 | LIMA1 (protein) MESSPFNRRQWTSLSLRVTAKELSLVNKNKSSAIVEIFSKYQKAAEETNMEKKRSNTENLSQHFRKGTLTVLKKKWENPGLGAESHTDSLRNSSTEIRHRADHPPAEVTSHAASGAKADQEEQIHPRSRLRSPPEALVQGRYPHIKDGEDLKDHSTESKKMENCLGESRHEVEKSEISENTDASGKIEKYNVPLNRLKMMFEKGEPTQTKILRAQSRSASGRKISENSYSLDDLEIGPGQLSSSTFDSEKNESRRNLELPRLSETSIKDRMAKYQAAVSKQSSSTNYTNELKASGGEIKIHKMEQKENVPPGPEVCITHQEGEKISANENSLAVRSTPAEDDSPGDSQVKSEVQQPVHPKPLSPDSRASSLSESSPPKAMKKFQAPARETCVECQKTVYPMERLLANQQVFHISCFRCSYCNNKLSLGTYASLHGRIYCKPHFNQLFKSKGNYDEGFGHRPHKDLWASKNENEEILERPAQLANARETPHSPGVEDAPIAKVGVLAASMEAKASSQQEKEDKPAETKKLRIAWPPPTELGSSGSALEEGIKMSKPKWPPEDEISKPEVPEDVDLDLKKLRRSSSLKERSRPFTVAASFQSTSVKSPKTVSPPIRKGWSMSEQSEESVGGRVAERKQVENAKASKKNGNVGKTTWQNKESKGETGKRSKEGHSLEMENENLVENGADSDEDDNSFLKQQSPQEPKSLNWSSFVDNTFAEEFTTQNQKSQDVELWEGEVVKELSVEEQIKRNRYYDEDEDEE | 2 | 0 | 4 | 3
8 | PBXIP1 (protein) MDPESERALQAPHSPSKTDGKELAGTMDGEGTLFQTESPQSGSILTEETEVKGTLEGDVCGVEPPGPGDTVVQGDLQETTVVTGLGPDTQDLEGQSPPQSLPSTPKAAWIREEGRCSSSDDDTDVDMEGLRRRRGREAGPPQPMVPLAVENQAGGEGAGGELGISLNMCLLGALVLLGLGVLLFSGGLSESETGPMEEVERQVLPDPEVLEAVGDRQDGLREQLQAPVPPDSVPSLQNMGLLLDKLAKENQDIRLLQAQLQAQKEELQSLMHQPKGLEEENAQLRGALQQGEAFQRALESELQQLRARLQGLEADCVRGPDGVCLSGGRGPQGDKAIREQGPREQEPELSFLKQKEQLEAEAQALRQELERQRRLLGSVQQDLERSLQDASRGDPAHAGLAELGHRLAQKLQGLENWGQDPGVSANASKAWHQKSHFQNSREWSGKEKWWDGQRDRKAEHWKHKKEESGRERKKNWGGQEDREPAGRWKEGRPRVEESGSKKEGKRQGPKEPPRKSGSFHSSGEKQKQPRWREGTKDSHDPLPSWAELLRPKYRAPQGCSGVDECARQEGLTFFGTELAPVRQQELASLLRTYLARLPWAGQLTKELPLSPAFFGEDGIFRHDRLRFRDFVDALEDSLEEVAVQQTGDDDEVDDFEDFIFSHFFGDKALKKRSGKKDKHSQSPRAAGPREGHSHSHHHHHRG | 4 | 0 | 2 | 0
